Measurements as given in patent publication US20120316071A1 (published 2012).

How the values were obtained:
[1] = target: T1, Recombinant Human DLL4 (delta-like protein 4) (human, UniProt Q9NR61 27-524); assay: ELISA on plate-coated DLL4, 100 nM Fab
T1 construct: Bought recombinant protein (R&D Systems Cat#1506-D4/CF); also called rHuman DLL4

[2] = target: T1, Recombinant Human DLL4 (delta-like …); assay: ECL 96-well plate assay on immobilised DLL4, 10 nM Fab
[3] = target: T2, Recombinant Human DLL4 (delta-like protein 4) (human, UniProt Q9NR61 27-524); assay: ELISA, DLL4-coated plate, 100 nM Fab
T2 construct: Bought recombinant human DLL4 (R&D Systems Cat#1506-D4/CF); also called rHuman DLL4

[4] = target: T2, Recombinant Human DLL4 (delta-like …); assay: ECL (MSD) binding assay, immobilised DLL4, 10 nM Fab;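 also: fab binding read as electrochemiluminescence via a TAG-labelled detection antibody, 1 h incubations at 20 °C, antigen signal compared with each well's blank, ratio of at least 4 scored as binder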

Row | Binder | ELISA signal [1] | ECL signal [2] | ELISA Signal [100 nM Fab] [3] | ECL Signal [10 nM Fab] [4]
1 | Fab VH1-46_IGHD6-6*01_IGHJ1*01 S102A/S103P/S104F/H111F N52P & L6_IGKJ1*01 (Fab, V domains shown, Fab from E. coli; CH1 (with His and Flag tags) and kappa CL come from the expression plasmids; also called APFF N52P) VH: QVQLVQSGAEVKKPGASVKVSCKASGYTFTSYYMHWVRQAPGQGLEWMGIIPPSGGSTSYAQKFQGRVTMTRDTSTSTVYMELSSLRSEDTAVYYCAREEYAPFSAEYFQFWGQGTLVTVSS VL: not shown | 0.18 | 44800 | – | –
2 | Fab VH1-46_IGHD6-6*01_IGHJ1*01 S102A/S103P/S104F/H111F G56V & L6_IGKJ1*01 (Fab, V domains shown, Fab from E. coli; CH1 (with His and Flag tags) and kappa CL come from the expression plasmids; also called APFF G56V) VH: QVQLVQSGAEVKKPGASVKVSCKASGYTFTSYYMHWVRQAPGQGLEWMGIINPSGVSTSYAQKFQGRVTMTRDTSTSTVYMELSSLRSEDTAVYYCAREEYAPFSAEYFQFWGQGTLVTVSS VL: not shown | 0.23 | 68600 | – | –
3 | Fab VH1-46_IGHD6-6*01_IGHJ1*01 S102A/S103P/S104F/H111F N52K & L6_IGKJ1*01 (Fab, V domains shown, Fab from E. coli; CH1 (with His and Flag tags) and kappa CL come from the expression plasmids; also called APFF N52K) VH: QVQLVQSGAEVKKPGASVKVSCKASGYTFTSYYMHWVRQAPGQGLEWMGIIKPSGGSTSYAQKFQGRVTMTRDTSTSTVYMELSSLRSEDTAVYYCAREEYAPFSAEYFQFWGQGTLVTVSS VL: not shown | 0.45 | 67100 | – | –
4 | Fab VH1-46_IGHD6-6*01_IGHJ1*01 S102A/S103P/S104F/H111F N52A & L6_IGKJ1*01 (Fab, V domains shown, Fab from E. coli; CH1 (with His and Flag tags) and kappa CL come from the expression plasmids; also called APFF N52A) VH: QVQLVQSGAEVKKPGASVKVSCKASGYTFTSYYMHWVRQAPGQGLEWMGIIAPSGGSTSYAQKFQGRVTMTRDTSTSTVYMELSSLRSEDTAVYYCAREEYAPFSAEYFQFWGQGTLVTVSS VL: not shown | 0.12 | 52500 | – | –
5 | Fab VH1-46_IGHD6-6*01_IGHJ1*01 S102A/S103P/S104F/H111F N52R & L6_IGKJ1*01 (Fab, V domains shown, Fab from E. coli; CH1 (with His and Flag tags) and kappa CL come from the expression plasmids; also called APFF N52R) VH: QVQLVQSGAEVKKPGASVKVSCKASGYTFTSYYMHWVRQAPGQGLEWMGIIRPSGGSTSYAQKFQGRVTMTRDTSTSTVYMELSSLRSEDTAVYYCAREEYAPFSAEYFQFWGQGTLVTVSS VL: not shown | 0.01 | 21600 | – | –

The remaining lines, values ahead:

Row | ELISA signal [1] | ECL signal [2] | ELISA Signal [100 nM Fab] [3] | ECL Signal [10 nM Fab] [4] | Binder
6 | 0.28 | 62200 | – | – | Fab VH1-46_IGHD6-6*01_IGHJ1*01 S102A/S103P/S104F/H111F N52S & L6_IGKJ1*01 (Fab, V domains shown, Fab from E. coli; CH1 (with His and Flag tags) and kappa CL come from the expression plasmids; also called APFF N52S) VH: QVQLVQSGAEVKKPGASVKVSCKASGYTFTSYYMHWVRQAPGQGLEWMGIISPSGGSTSYAQKFQGRVTMTRDTSTSTVYMELSSLRSEDTAVYYCAREEYAPFSAEYFQFWGQGTLVTVSS VL: not shown
7 | 0.61 | 66800 | – | – | Fab VH1-46_IGHD6-6*01_IGHJ1*01 S102A/S103P/S104F/H111F N52T & L6_IGKJ1*01 (Fab, V domains shown, Fab from E. coli; CH1 (with His and Flag tags) and kappa CL come from the expression plasmids; also called APFF N52T) VH: QVQLVQSGAEVKKPGASVKVSCKASGYTFTSYYMHWVRQAPGQGLEWMGIITPSGGSTSYAQKFQGRVTMTRDTSTSTVYMELSSLRSEDTAVYYCAREEYAPFSAEYFQFWGQGTLVTVSS VL: not shown
8 | – | – | 0.02 | 41600 | Fab VH5-51_IGHD5-18*01>3_IGHJ4*01 G100K/G104T & V3-4_IGLJ1*01 V91L (Fab, V domains shown, Fab; expressed with CH1 (His and Flag tags) and lambda CL from the expression plasmids; also called H:KT & V91L) VH: EVQLVQSGAEVKKPGESLKISCKGSGYSFTSYWIGWVRQMPGKGLEWMGIIYPGDSDTRYSPSFQGQVTISADKSISTAYLQWSSLKASDTAMYYCARRKYSYTYDYFDYWGQGTLVTVSS VL: QTVVTQEPSFSVSPGGTVTLTCGLSSGSVSTSYYPSWYQQTPGQAPRTLIYSTNTRSSGVPDRFSGSILGNKAALTITGAQADDESDYYCLLYMGSGISYVFGTGTKVTVL
9 | – | – | 0.01 | 32700 | Fab VH5-51_IGHD5-18*01>3_IGHJ4*01 G100K/G104T & V3-4_IGLJ1*01 V91T (Fab, V domains shown, Fab; expressed with CH1 (His and Flag tags) and lambda CL from the expression plasmids; also called H:KT & V91T) VH: EVQLVQSGAEVKKPGESLKISCKGSGYSFTSYWIGWVRQMPGKGLEWMGIIYPGDSDTRYSPSFQGQVTISADKSISTAYLQWSSLKASDTAMYYCARRKYSYTYDYFDYWGQGTLVTVSS VL: QTVVTQEPSFSVSPGGTVTLTCGLSSGSVSTSYYPSWYQQTPGQAPRTLIYSTNTRSSGVPDRFSGSILGNKAALTITGAQADDESDYYCTLYMGSGISYVFGTGTKVTVL
10 | – | – | 0 | 46700 | Fab VH5-51_IGHD5-18*01>3_IGHJ4*01 G100K/G104T & V3-4_IGLJ1*01 V91N (Fab, V domains shown, Fab; expressed with CH1 (His and Flag tags) and lambda CL from the expression plasmids; also called H:KT & V91N) VH: EVQLVQSGAEVKKPGESLKISCKGSGYSFTSYWIGWVRQMPGKGLEWMGIIYPGDSDTRYSPSFQGQVTISADKSISTAYLQWSSLKASDTAMYYCARRKYSYTYDYFDYWGQGTLVTVSS VL: QTVVTQEPSFSVSPGGTVTLTCGLSSGSVSTSYYPSWYQQTPGQAPRTLIYSTNTRSSGVPDRFSGSILGNKAALTITGAQADDESDYYCNLYMGSGISYVFGTGTKVTVL
11 | – | – | 0.01 | 32100 | Fab VH5-51_IGHD5-18*01>3_IGHJ4*01 G100K/G104T & V3-4_IGLJ1*01 V91S (Fab, V domains shown, Fab; expressed with CH1 (His and Flag tags) and lambda CL from the expression plasmids; also called H:KT & V91S) VH: EVQLVQSGAEVKKPGESLKISCKGSGYSFTSYWIGWVRQMPGKGLEWMGIIYPGDSDTRYSPSFQGQVTISADKSISTAYLQWSSLKASDTAMYYCARRKYSYTYDYFDYWGQGTLVTVSS VL: QTVVTQEPSFSVSPGGTVTLTCGLSSGSVSTSYYPSWYQQTPGQAPRTLIYSTNTRSSGVPDRFSGSILGNKAALTITGAQADDESDYYCSLYMGSGISYVFGTGTKVTVL
12 | – | – | 0 | 12500 | Fab VH5-51_IGHD5-18*01>3_IGHJ4*01 G100K/G104T & V3-4_IGLJ1*01 V91W (Fab, V domains shown, Fab; expressed with CH1 (His and Flag tags) and lambda CL from the expression plasmids; also called H:KT & V91W) VH: EVQLVQSGAEVKKPGESLKISCKGSGYSFTSYWIGWVRQMPGKGLEWMGIIYPGDSDTRYSPSFQGQVTISADKSISTAYLQWSSLKASDTAMYYCARRKYSYTYDYFDYWGQGTLVTVSS VL: QTVVTQEPSFSVSPGGTVTLTCGLSSGSVSTSYYPSWYQQTPGQAPRTLIYSTNTRSSGVPDRFSGSILGNKAALTITGAQADDESDYYCWLYMGSGISYVFGTGTKVTVL
13 | – | – | 0 | 13400 | Fab VH5-51_IGHD5-18*01>3_IGHJ4*01 G100K/G104T & V3-4_IGLJ1*01 V91R (Fab, V domains shown, Fab; expressed with CH1 (His and Flag tags) and lambda CL from the expression plasmids; also called H:KT & V91R) VH: EVQLVQSGAEVKKPGESLKISCKGSGYSFTSYWIGWVRQMPGKGLEWMGIIYPGDSDTRYSPSFQGQVTISADKSISTAYLQWSSLKASDTAMYYCARRKYSYTYDYFDYWGQGTLVTVSS VL: QTVVTQEPSFSVSPGGTVTLTCGLSSGSVSTSYYPSWYQQTPGQAPRTLIYSTNTRSSGVPDRFSGSILGNKAALTITGAQADDESDYYCRLYMGSGISYVFGTGTKVTVL
